The values below come from patent US20200199241A1 (Chugai, published 2020).

Test [1] addresses T1, FcγRIIb (human, UniProt P31994 43-217, limits assumed).
T1 construct: SPR analyte; also called FcγIIB; CD32
T1 sequence: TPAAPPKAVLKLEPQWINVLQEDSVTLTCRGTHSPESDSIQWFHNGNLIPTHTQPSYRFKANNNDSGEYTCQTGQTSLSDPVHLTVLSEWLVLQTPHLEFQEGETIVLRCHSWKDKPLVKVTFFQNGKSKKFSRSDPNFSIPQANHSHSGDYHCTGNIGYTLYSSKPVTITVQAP
Briefly: ratio of SPR KDs; reference IL6R-B3/IL6R-L.

Test [2] concerns the target T2, FcγRIa (human, UniProt P12314 16-292, limits assumed).
T2 construct: SPR analyte; also called CD64
The test is described as follows: SPR (Biacore), antibody captured, FcγR analyte. For orientation: In SPR one partner is held on a chip, and binding of the other changes the refractive index at the surface.

The target in test [3] is T3, FcγRIIa type R (human, UniProt P12318 36-217).
T3 construct: SPR analyte; also called FcγRIIaR; FcγRIIa(R)
T3 chain: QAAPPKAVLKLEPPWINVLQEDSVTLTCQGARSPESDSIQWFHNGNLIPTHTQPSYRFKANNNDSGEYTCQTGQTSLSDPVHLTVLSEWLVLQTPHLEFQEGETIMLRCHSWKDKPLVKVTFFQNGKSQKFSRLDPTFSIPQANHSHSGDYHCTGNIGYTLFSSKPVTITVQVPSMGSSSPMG
Briefly: SPR (Biacore), antibody captured, FcγR analyte.

Test [4] has as its target T4, FcγRIIa type H (human, UniProt P12318 36-217).
T4 construct: SPR analyte; also called FcγRIIaH
T4 sequence: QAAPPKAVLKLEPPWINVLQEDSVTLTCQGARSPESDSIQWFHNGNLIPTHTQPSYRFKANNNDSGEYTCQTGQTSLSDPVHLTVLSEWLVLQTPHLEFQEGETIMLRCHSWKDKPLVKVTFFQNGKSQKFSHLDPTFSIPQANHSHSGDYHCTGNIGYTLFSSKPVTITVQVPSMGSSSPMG
The test is described as follows: SPR (Biacore), antibody captured, FcγR analyte.

Test [5] concerns the target T1, FcγRIIb. Briefly: SPR (Biacore), antibody captured, FcγR analyte.
Test [6] concerns the target T5, FcγRIIIa type V (human, UniProt P08637 17-208, limits assumed).
T5 construct: SPR analyte; allotype V158 was used here; also called FcγRIIIaV; FcγRIIIa(V)
Briefly: SPR (Biacore), antibody captured, FcγR analyte.

In test [7] the target is T1, FcγRIIb. The test is described as follows: ratio of SPR KDs: KD for FcγRIIaH over KD for FcγRIIb.
Excerpt: (§1) Furthermore, KD(IIaR)/KD(IIb) and KD(IIaH)/KD(IIb) in the table respectively represent the value obtained by dividing the KD value of each variant for FcγRIIaR by the KD value of each variant for FcγRIIb, and the value obtained by dividing the KD value of each variant for FcγRIIaH by the KD value of each variant for FcγRIIb.
The target of test [8] is T1, FcγRIIb. The test is described as follows: ratio of SPR KDs: KD for FcγRIIaR over KD for FcγRIIb.
Excerpt: as §1
The target of test [9] is T3, FcγRIIa type R. Briefly: ratio of SPR KDs; stronger receptor here FcγRIIaR; reference IL6R-B3/IL6R-L (FcγRIIaH).

T5 sequence (P08637 other isoform, or with tags, fused parts or gaps limits assumed): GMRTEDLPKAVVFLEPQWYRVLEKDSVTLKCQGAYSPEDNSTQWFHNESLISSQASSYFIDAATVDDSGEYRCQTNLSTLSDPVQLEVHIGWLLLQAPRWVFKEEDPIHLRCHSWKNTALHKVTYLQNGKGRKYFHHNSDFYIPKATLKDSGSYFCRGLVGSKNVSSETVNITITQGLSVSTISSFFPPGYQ
T2 sequence (P12314 16-292 limits assumed): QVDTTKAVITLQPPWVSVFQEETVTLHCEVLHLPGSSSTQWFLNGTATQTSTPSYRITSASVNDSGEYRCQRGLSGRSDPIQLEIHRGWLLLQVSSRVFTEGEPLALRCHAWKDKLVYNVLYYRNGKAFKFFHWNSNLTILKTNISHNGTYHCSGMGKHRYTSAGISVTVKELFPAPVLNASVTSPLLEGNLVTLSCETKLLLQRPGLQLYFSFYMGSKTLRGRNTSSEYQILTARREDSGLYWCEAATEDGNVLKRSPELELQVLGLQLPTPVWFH

B1: IL6R-BP131/IL6R-L (antibody, human IgG1)
heavy: QVQLQESGPGLVKPSETLSLTCAVSGHSISHDHAWSWVRQPPGEGLEWIGFISYSGITNYNPSLQGRVTISRDNSKNTLYLQMNSLRAEDTAVYYCARSLARTTAMDYWGEGTLVTVSSASTKGPSVFPLAPSSKSTSGGTAALGCLVKDYFPEPVTVSWNSGALTSGVHTFPAVLQSSGLYSLSSVVTVPSSSLGTQTYICNVNHKPSNTKVDKKVEPKSCDKTHTCPPCPAPDLLGDDSVFLFPPKPKDTLMISRTPEVTCVVVDVSHEDPEVKFNWYVDGVEVHNAKTKPREEQYNSTYRVVSVLTVLHQDWLNGKEYKCKVSNKALPKPIEKTISKAKGQPREPQVYTLPPSRDELTKNQVSLTCLVKGFYPSDIAVEWESNGQPENNYKTTPPVLDSDGSFFLYSKLTVDKSRWQQGNVFSCSVMHEALHNHYTQESLSLSP
light: DIQMTQSPSSLSASVGDRVTITCRASQDISSYLNWYQQKPGKAPKLLIYYTSRLHSGVPSRFSGSGSGTDFTFTISSLQPEDIATYYCQQGNTLPYTFGQGTKVEIK
For the molecule B1, in test [1], the “KD(IIb) of the parent polypeptide/KD(IIb) of altered polypeptide” value (“KD(IIb) … of altered polypeptide” for short) was found to be 12.6. The dissociation constant (Kd) (usually the free concentration of one partner at which half of the binding sites on the other are occupied at equilibrium, for simple one-to-one binding) was determined as 0.12 µM in [2]; 3.1 µM in test [3]; 14 µM in [4]; 0.25 µM in test [5]; 59 µM in test [6]. The “KD(IIaH)/KD(IIb)” value in test [7] amounted to 56.9. Further, the “KD(IIaR)/KD(IIb)” value in test [8] stood at 12.5. Further, the “KD of the stronger of FcγRIIaR/FcγRIIaH binding of the variant / that of the parent polypeptide” value in test [9] is 4.

B2: IL6R-BP143/IL6R-L (antibody, human IgG1)
heavy: QVQLQESGPGLVKPSETLSLTCAVSGHSISHDHAWSWVRQPPGEGLEWIGFISYSGITNYNPSLQGRVTISRDNSKNTLYLQMNSLRAEDTAVYYCARSLARTTAMDYWGEGTLVTVSSASTKGPSVFPLAPSSKSTSGGTAALGCLVKDYFPEPVTVSWNSGALTSGVHTFPAVLQSSGLYSLSSVVTVPSSSLGTQTYICNVNHKPSNTKVDKKVEPKSCDKTHTCPPCPAPEYLGGDSVFLFPPKPKDTLMISRTPEVTCVVVDVSHEDPEVKFNWYVDGVEVHNAKTKPREEQYNSTYRVVSVLTVLHQDWLNGKEYKCKVSNAALPAPIEKTISKAKGQPREPQVYTLPPSRDELTKNQVSLTCLVKGFYPSDIAVEWESNGQPENNYKTTPPVLDSDGSFFLYSKLTVDKSRWQQGNVFSCSVMHEALHNHYTQESLSLSP
light: DIQMTQSPSSLSASVGDRVTITCRASQDISSYLNWYQQKPGKAPKLLIYYTSRLHSGVPSRFSGSGSGTDFTFTISSLQPEDIATYYCQQGNTLPYTFGQGTKVEIK
Consider B2, for which, in test [1], the “KD(IIb) … of altered polypeptide” value was found to be 5.4. Besides, the Kd in [2] stood at 0.016 µM; in test [3], 5.7 µM; in [4] it was 27 µM; in test [5], 0.57 µM; in [6], 62 µM. Moreover, the “KD(IIaH)/KD(IIb)” value in test [7] came to 47.1. Also, the “KD(IIaR)/KD(IIb)” value in test [8] is 10. Besides, the “KD of the stronger of FcγRIIaR/FcγRIIaH binding of the variant / that of the parent polypeptide” value in [9] worked out at 7.5.

B3: IL6R-BP149/IL6R-L (antibody, human IgG1)
heavy: QVQLQESGPGLVKPSETLSLTCAVSGHSISHDHAWSWVRQPPGEGLEWIGFISYSGITNYNPSLQGRVTISRDNSKNTLYLQMNSLRAEDTAVYYCARSLARTTAMDYWGEGTLVTVSSASTKGPSVFPLAPSSKSTSGGTAALGCLVKDYFPEPVTVSWNSGALTSGVHTFPAVLQSSGLYSLSSVVTVPSSSLGTQTYICNVNHKPSNTKVDKKVEPKSCDKTHTCPPCPAPDYLGDDSVFLFPPKPKDTLMISRTPEVTCVVVDVSHEDPEVKFNWYVDGVEVHNAKTKPREEQDNSTYRVVSVLTVLHQDWLNGKEYKCKVSNAALPKPIEKTISKAKGQPREPQVYTLPPSRDELTKNQVSLTCLVKGFYPSDIAVEWESNGQPENNYKTTPPVLDSDGSFFLYSKLTVDKSRWQQGNVFSCSVMHEALHNHYTQESLSLSP
light: DIQMTQSPSSLSASVGDRVTITCRASQDISSYLNWYQQKPGKAPKLLIYYTSRLHSGVPSRFSGSGSGTDFTFTISSLQPEDIATYYCQQGNTLPYTFGQGTKVEIK
With B3, the “KD(IIb) … of altered polypeptide” value in [1] is 33.1. The Kd in test [2] worked out at 0.12 µM; in [3], 1.4 µM; in test [4] it was 8.4 µM; in test [5], 0.093 µM; in [6], 37 µM. For the same molecule, in test [7], the “KD(IIaH)/KD(IIb)” value came out at 89.9. Besides, the “KD(IIaR)/KD(IIb)” value in test [8] turned out to be 15. Further, the “KD of the stronger of FcγRIIaR/FcγRIIaH binding of the variant / that of the parent polypeptide” value in test [9] amounted to 1.8.
